T1: BCMA (Homo sapiens (Human), UniProt Q02223 1-54, limits assumed)
T1 sequence: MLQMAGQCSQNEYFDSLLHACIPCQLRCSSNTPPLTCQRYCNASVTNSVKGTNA

B1: D-domain SEQ ID NO: 149 (designed binder)
chain: MGSWMEFEGRLPAILARLRALGGSEAELAAFEKEIAAFESELQAYKGKGNPEVEHLRDKAAYIRWMLQAYRHN
B2: D-domain SEQ ID NO: 150 (designed binder)
chain: B1 chain with M5F, E8Q, G9N, P12Q, A16F, H55N, W65L
B3: D-domain SEQ ID NO: 165 (designed binder)
chain: MGSWYEFDERLSAIKLRLRALGGSEAELAAFEKEIAAFESELQAYKGKGNPEVEVLRAQAAYIRAILQAYRHN
B4: D-domain SEQ ID NO: 156 (designed binder)
chain: B1 chain with M5Y, G9D, P12L, L15K, A16V, H55Y, K59Q, W65F
B5: D-domain SEQ ID NO: 157 (designed binder)
chain: B1 chain with M5Y, E8Q, G9D, P12S, L15T, A16T, H55L, W65F
B6: D-domain SEQ ID NO: 161 (designed binder)
chain: B1 chain with M5Y, G9H, P12K, L15V, A16S, R19G, W65Y
B7: D-domain SEQ ID NO: 154 (designed binder)
chain: B1 chain with M5I, E8D, G9T, P12A, L15V, A16H, H55L, W65Y
B8: D-domain SEQ ID NO: 163 (designed binder)
chain: B1 chain with P12H, L15K, A16R, H55V, K59Q, W65L, M66L
B9: D-domain SEQ ID NO: 164 (designed binder)
chain: MGSWSEFVFRLDTIKSRLRALGGSEAELAAFEKEIAAFESELQAYKGKGNPEVETLRDQAAYIRLMLQAYRHN
B10: D-domain SEQ ID NO: 151 (designed binder)
chain: B1 chain with M5V, E8D, G9M, P12Q, A16E, K59S, W65L
B11: D-domain SEQ ID NO: 148 (designed binder)
chain: B1 chain with E8Q
B12: D-domain SEQ ID NO: 155 (designed binder)
chain: B1 chain with M5I, E8D, G9Y, P12K, A16H, H55G, W65F, M66L
B13: D-domain SEQ ID NO: 153 (designed binder)
chain: B1 chain with E8N, G9V, P12R, A16D, R19H, H55L, W65F
B14: D-domain SEQ ID NO: 159 (designed binder)
chain: B1 chain with M5V, G9Q, P12H, L15V, A16V, K48G, H55N, K59Q, W65F
B15: D-domain SEQ ID NO: 168 (designed binder)
chain: B1 chain with M5Y, E8D, P12Q, L15I, D58F, K59R, M66I
B16: D-domain SEQ ID NO: 162 (designed binder)
chain: B1 chain with E8K, G9H, P12A, L15T, A16F, H55L, W65L, M66L
B17: D-domain SEQ ID NO: 152 (designed binder)
chain: B1 chain with M5V, E8N, G9A, P12D, A16F, K59Q, W65L
B18: D-domain SEQ ID NO: 158 (designed binder)
chain: B9 chain with S5E, V8D, F9D, D12N, T13A, K15V, S16Y, T55M
B19: D-domain SEQ ID NO: 166 (designed binder)
chain: B3 chain with Y5M, S12W, L16K, V55F, A58H, A65M, I66L
B20: D-domain SEQ ID NO: 167 (designed binder)
chain: B1 chain with M5H, E8D, P12S, L15K, A16R, R19W, K59Q, W65Y
B21: D-domain SEQ ID NO: 160 (designed binder)
chain: B1 chain with M5V, G9W, P12E, L15V, A16V, W65Y
B22: D-domain SEQ ID NO: 170 (designed binder)
chain: B1 chain with M5V, E8D, G9N, P12Y, L15V, A16D, D58Q, W65L, M66I
B23: D-domain SEQ ID NO: 145 (designed binder)
chain: MGSWEEFYGRLSAIQDRLWALGGSEAELAAFEKEIAAFESELQAYKGKGNPEVEWLRMHAAVIRRALQAYRHN
B24: D-domain SEQ ID NO: 132 (designed binder)
chain: MGSWVEFDRRLVAIYIRLWALGGSEAELAAFEKEIAAFESELQAYKGKGNPEVEALRDDAALIRLLLQAYRHN
B25: D-domain SEQ ID NO: 143 (designed binder)
chain: B24 chain with V5T, D8Y, R9Q, V12E, Y15N, I16F, A55V, D59K, L66M
B26: D-domain SEQ ID NO: 135 (designed binder)
chain: B24 chain with V5I, V12L, Y15H, I16V, A55V, D58A, L62K, L65M, L66E
B27: D-domain SEQ ID NO: 140 (designed binder)
chain: B24 chain with D8R, R9Y, V12G, I16H, A55V, D59R, L62T, L65R
B28: D-domain SEQ ID NO: 134 (designed binder)
chain: B24 chain with V5L, V12T, I16L, D58E, L62M, L65D, L66M
B29: D-domain SEQ ID NO: 136 (designed binder)
chain: B24 chain with V5I, V12I, Y15W, A55S, D58S, L62D, L65Q, L66K
B30: D-domain SEQ ID NO: 133 (designed binder)
chain: B24 chain with A55K, D58Y, L62T, L65E, L66T
B31: D-domain SEQ ID NO: 137 (designed binder)
chain: B24 chain with V12I, Y15W, I16V, A55F, D58S, L62M, L65E, L66H
B32: D-domain SEQ ID NO: 138 (designed binder)
chain: MGSWYEFHTRLIAIYVRLWALGGSEAELAAFEKEIAAFESELQAYKGKGNPEVEWLRGDAAKIRGYLQAYRHN
B33: D-domain SEQ ID NO: 139 (designed binder)
chain: B32 chain with Y5S, H8S, I12S, W55Y, G58N, D59K, K62S, G65K, Y66T
B34: D-domain SEQ ID NO: 141 (designed binder)
chain: MGSWNEFRNRLGAIDSRLWALGGSEAELAAFEKEIAAFESELQAYKGKGNPEVETLRAHAAIIRSVLQAYRHN
B35: D-domain SEQ ID NO: 144 (designed binder)
chain: B34 chain with R8Y, G12H, D15N, S16L, T55V, A58E, S65Q, V66A
B36: D-domain SEQ ID NO: 142 (designed binder)
chain: B34 chain with N5H, H59R, I62M
B37: D-domain SEQ ID NO: 146 (designed binder)
chain: MGSWGEFNLRLVAIHVRLWALGGSEAELAAFEKEIAAFESELQAYKGKGNPEVEFLRSQAANIRAQLQAYRHN
B38: D-domain SEQ ID NO: 147 (designed binder)
chain: B37 chain with N8S, L9D, V12E, H15N, V16E, F55E, S58W, N62F, Q66N
B39: D-domain SEQ ID NO: 169 (designed binder)
chain: MGSWFEFDKRLYAIIHRLRALGGSEAELAAFEKEIAAFESELQAYKGKGNPEVEKLRYKAAIIRLYLQAYRHN

Changes are numbered by the printed parent chain.

In this assay the target is T1, BCMA. The experiment in a line: ELISA, format not described. On the set-up: unit not given here.
Molecule B1 displayed an ELISA_avg of 3.93.

Regarding B2, the ELISA_avg stood at 5.39.

In turn, B3 had an ELISA_avg of 16.9.

B4 gave an ELISA_avg of 17.6.

Turning to B5, the ELISA_avg came to 10.1.

B6 had an ELISA_avg of 4.55.

In turn, B7 gave an ELISA_avg of 13.9.

With B8, the ELISA_avg came out at 7.33.

In turn, B9 came in with an ELISA_avg of 19.9.

On to B10, for which the ELISA_avg turned out to be 23.5.

In the case of B11, the ELISA_avg was 8.32.

B12 came in with an ELISA_avg of 11.9.

For B13, the ELISA_avg stood at 15.6.

In the case of B14, the ELISA_avg was found to be 17.7.

Consider B15, for which the ELISA_avg was determined as 3.29.

Molecule B16 returned an ELISA_avg of 6.06.

In turn, B17 showed an ELISA_avg of 13.5.

B18 gave an ELISA_avg of 18.6.

In the case of B19, the ELISA_avg worked out at 9.53.

For B20, the ELISA_avg is 5.4.

B21 showed an ELISA_avg of 14.9.

With B22, the ELISA_avg worked out at 11.7.

Molecule B23 came in with an ELISA_avg of 3.28.

B24: the ELISA_avg was found to be 8.93.

For the molecule B25, the ELISA_avg stood at 6.96.

For the molecule B26, the ELISA_avg amounted to 13.7.

In turn, B27 showed an ELISA_avg of 10.8.

In turn, B28 displayed an ELISA_avg of 9.82.

The molecule B29 registered an ELISA_avg of 9.45.

The molecule B30 registered an ELISA_avg of 8.

B31 gave an ELISA_avg of 5.77.

On to B32, for which the ELISA_avg was found to be 4.06.

B33: the ELISA_avg was determined as 5.35.

The molecule B34 registered an ELISA_avg of 4.7.

With B35, the ELISA_avg came to 3.

As for B36, the ELISA_avg is 3.49.

As to B37, the ELISA_avg was determined as 12.8.

In the case of B38, the ELISA_avg was 4.26.

Molecule B39 came in with an ELISA_avg of 11.8.

The values above are taken from patent US20250026849A1 (ARCELLX, published 2025).
